The results in this text go back to patent US8673306B2, “Compositions and methods of use for antibodies of dickkopf-1” (Novartis AG, priority 2006, dated 2014).

Numbering of substitutions follows the chain as printed. Marks after values point to notes of the source that are not given here.

First the molecules themselves.
B1: MOR04910: affinity-optimized Fab from MOR04461; VH SEQ ID NO: 11, VL SEQ ID NO: 30; also used as MOR4910 IgG (antibody, listed as Homo sapiens, V domains shown)
VH: QVQLVESGGGLVQPGGSLRLSCAASGFTFSSYWMSWVRQAPGKGLEWVSGISYSGSNTHYADSVKGRFTISRDNSKNTLYLQMNSLRAEDTAVYYCARMGIDLDYWGQGTLVTVSS
VL: DIALTQPASVSGSPGQSITISCTGTSSDVGGFNYVSWYQQHPGKAPKLMIHDGSNRPSGVSNRFSGSKSGNTASLTISGLQAEDEADYYCQSWDVSPITAVFGGGTKLTVLGQ
B2: MOR04907: affinity-optimized Fab from MOR04456; VH SEQ ID NO: 8, VL SEQ ID NO: 27 (antibody, listed as Homo sapiens, V domains shown)
VH: QVQLVESGGGLVQPGGSLRLSCAASGFTFNNYGMTWVRQAPGKGLEWVSGISGSGSYTYYADSVKGRFTISRDNSKNTLYLQMNSLRAEDTAVYYCARTIYMDYWGQGTLVTVSS
VL: DIVLTQSPATLSLSPGERATLSCRASQNLFSPYLAWYQQKPGQAPRLLIYGASNRATGVPARFSGSGSGTDFTLTISSLEPEDFAVYYCQQYLSLPTTFGQGTKVEIKRT
B3: MOR04954: affinity-optimized Fab from MOR04470; VH SEQ ID NO: 18, VL SEQ ID NO: 37 (antibody, listed as Homo sapiens, V domains shown)
VH: QVQLVESGGGLVQPGGSLRLSCAASGFTFSSYWMSWVRQAPGKGLEWVSVIEHKDKGGTTYYAASVKGRFTISRDNSKNTLYLQMNSLRAEDTAVYYCARHGIDFDHWGQGTLVTVSS
VL: DIALTQPASVSGSPGQSITISCTGTSSDLGGYNYVSWYQQHPGKAPKLMIYDVNNRPSGVSNRFSGSKSGNTASLTISGLQAEDEADYYCQSYASGNTKVVFGGGTKLTVLGQ
B4: MOR04921: affinity-optimized Fab from MOR04461; VH SEQ ID NO: 12, VL SEQ ID NO: 31 (antibody, listed as Homo sapiens, V domains shown)
VH: B1 VH
VL: B1 VL with S92T, D94A, V95T, I98L, T99S, A100S
B5: MOR04914: affinity-optimized Fab from MOR04470; VH SEQ ID NO: 14, VL SEQ ID NO: 33 (antibody, listed as Homo sapiens, V domains shown)
VH: B1 VH with G50V, Y53S, S54D, G55S, N57S, H59Y, M99H, L103F, Y105H
VL: B3 VL with A94T, S95Y, G96T, N97P, T98I, K99S, V100P
B6: MOR04516: parental HuCAL GOLD anti-DKK1 Fab; VH SEQ ID NO: 7, VL SEQ ID NO: 26 (antibody, listed as Homo sapiens, V domains shown)
VH: QVQLVQSGAEVKKPGESLKISCKGSGYSFTNYYIGWVRQMPGKGLEWMGIIYPTDSYTNYSPSFQGQVTISADKSISTAYLQWSSLKASDTAMYYCARGIPFRMRGFDYWGQGTLVTVSS
VL: DIVLTQPPSVSGAPGQRVTISCSGSSSNIGSSFVNWYQQLPGTAPKLLIGNNSNRPSGVPDRFSGSKSGTSASLAITGLQSEDEADYYCASFDMGSPNVVFGGGTKLTVLGQ
B7: MOR04456: parental HuCAL GOLD anti-DKK1 Fab; VH SEQ ID NO: 4, VL SEQ ID NO: 23 (antibody, listed as Homo sapiens, V domains shown)
VH: B2 VH
VL: B2 VL with V86T, L93G, S94D, L95E, T97I
B8: MOR04454: parental HuCAL GOLD anti-DKK1 Fab; VH SEQ ID NO: 2, VL SEQ ID NO: 21 (antibody, listed as Homo sapiens, V domains shown)
VH: QVQLVESGGGLVQPGGSLRLSCAASGFTFSNYGLHWVRQAPGKGLEWVSSISYYGSSTYYADSVKGRFTISRDNSKNTLYLQMNSLRAEDTAVYYCARDGSHMDKPPGYVFAFWGQGTLVTVSS
VL: DIQMTQSPSSLSASVGDRVTITCRASQGIKNYLNWYQQKPGKAPKLLIGAASSLQSGVPSRFSGSGSGTDFTLTISSLQPEDFATYYCLQYYGMPPTFGQGTKVEIKRT
B9: MOR04470: parental HuCAL GOLD anti-DKK1 Fab; VH SEQ ID NO: 6, VL SEQ ID NO: 25 (antibody, listed as Homo sapiens, V domains shown)
VH: B1 VH with G50V, Y53S, S54D, G55S, N57S, H59Y, M99H, L103F, Y105H
VL: B3 VL
B10: MOR04461: parental HuCAL GOLD anti-DKK1 Fab; VH SEQ ID NO: 5, VL SEQ ID NO: 24 (antibody, listed as Homo sapiens, V domains shown)
VH: B1 VH
VL: DIALTQPASVSGSPGQSITISCTGTSSDVGGFNYVSWYQQHPGKAPKLMIHDGSNRPSGVSNRFSGSKSGNTASLTISGLQAEDEADYYCSTWDMTVDFVFGGGTKLTVLGQ
B11: MOR04455: parental HuCAL GOLD anti-DKK1 Fab; VH SEQ ID NO: 3, VL SEQ ID NO: 22 (antibody, listed as Homo sapiens, V domains shown)
VH: QVQLVESGGGLVQPGGSLRLSCAASGFTFSSYGMSWVRQAPGKGLEWVSGISGSGSYTYYADSVKGRFTISRDNSKNTLYLQMNSLRAEDTAVYYCARHYMDHWGQGTLVTVSS
VL: DIQMTQSPSSLSASVGDRVTITCRASQDISNYLHWYQQKPGKAPKLLIYGASNLQSGVPSRFSGSGSGTDFTLTISSLQPEDFAVYYCQQYDSIPMTFGQGTKVEIKRT

The first data set deals with T1, DKK1/LRP6 binding on cell surface (Homo sapiens, UniProt O94907).
T1 construct: made in house; LRP6 and MESD transiently transfected into HEK293T
T1 sequence (O94907 32-266): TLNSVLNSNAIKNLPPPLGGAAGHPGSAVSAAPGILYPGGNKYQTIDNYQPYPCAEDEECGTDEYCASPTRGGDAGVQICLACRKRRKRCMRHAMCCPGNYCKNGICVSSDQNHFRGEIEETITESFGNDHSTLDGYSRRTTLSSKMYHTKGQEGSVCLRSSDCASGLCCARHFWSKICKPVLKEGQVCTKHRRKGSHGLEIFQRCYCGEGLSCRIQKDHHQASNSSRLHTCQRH
The data set can be described thus: DKK1-GFP binding to LRP6 on HEK293T cell surface, fluorescence microscopy. In kind it is cell-based. The note with it: HEK293T transfected with LRP6 and MESD. On the procedure:
However, upon co-transfection of LRP6 with a surface trafficking chaperone protein, MESD, GFP-tagged DKK1 can be detected on the cell surface, illustrating the specific nature of the DKK1/LRP6 interaction.
The ability of MOR04910 to inhibit DKK1/LRP6 binding on cell surface is measured by fluorescence microscopy. HEK293T cells are either mock transfected and transiently transfected with plasmids encoding LRP6 and MESD. Cells are incubated with DKK1-GFP conditioned medium together with anti-lysozyme FAb or anti-DKK1 FAb MOR04910 for 1 hour at 37° C., and examined by fluorescence microscopy. GFP fluorescence reflects DKK1-GFP binding to overexpressed LRP6 on the plasma membrane.
For B1, the “inhibition of DKK1/LRP6 binding on cell surface” value is “specifically blocks this interaction”.

The target of a further data set is T2, human recombinant, biotinylated DKK1 (Homo sapiens, UniProt O94907).
T2 sequence (O94907 32-266): T1 sequence (O94907 32-266)
Put plainly: ELISA binding of matured Fabs in presence of 50% human serum. The note with it: Fab 1 μg/ml. As for the experimental part:
Binding specificity of the matured Fabs in the presence of 50% human serum (HS) is determined. Serial dilutions of human recombinant, biotinylated DKK1 in TBS are Coated onto Neutravidin microtiter plates for 2 h at room temperature, from 8 ng DKK1 per well to a concentration of 125 ng DKK1 per well. After coating of the antigen, wells are blocked with TBS/0.05% Tween (TBS-T) supplemented with 1% BSA for 1 h at room temperature. Purified Fabs described above are diluted either in TBS/4% BSA or TBS/50% HS at a final concentration of 1 μg/ml, added to the coated and blocked wells and the plates are incubated for 1 h at room temperature. For detection, an anti-FLAG alkaline phosphatase (AP)-conjugated antibody (1:5000 dilution in TBST) and the fluorogenic substrate AttoPhos (Roche) are used. After each incubation, the wells of the microtiter plates are washed with TBST five times, except after the final incubation step with the labeled secondary antibody when wells are washed three times.
The fluorescence is measured in a TECAN Spectrafluor plate reader. Table 8 summarizes the binding activity of the optimized anti-DKK1 Fabs in presence of 50% human serum compared to binding activity in 4% BSA, which ranges from 83% to 100%. The median value is found to be 93%, thus the anti-DKK1 Fabs are found to fully bind to target in the presence of human serum.
(In an ELISA, binding on a coated surface is turned into a signal by an enzyme label.)
For B2, the “Binding activity w/50% Human serum vs 4% BSA (%)” value is >83* %. As to B3, the “Binding activity w/50% Human serum vs 4% BSA (%)” value was >83* %. In the case of B4, the “Binding activity w/50% Human serum vs 4% BSA (%)” value was 93* %. On the same count and under the same terms, in the case of B5 it was 83* %.

Tested on in the next data set: not listed separately
The data set can be described thus: Fab stability and aggregation (size exclusion chromatography). In kind it is physicochemical. The note with it: Fab after purification. Background: SEC sorts molecules by how far they enter the pores of the column.
For B6, the Size exclusion chromatography result is listed as “# (monomeric portion >90%)”. For B7, the Size exclusion chromatography result was “# (monomeric portion >90%)”. On the same count and under the same terms, to B8 belongs “# (monomeric portion >90%)”; to B9, “# (monomeric portion >90%)”; to B10, “# (monomeric portion >90%)”. With B11, the Size exclusion chromatography entry was “# (monomeric portion >90%)”.
